What was measured:
[1] = target: actin filaments of rabbit skeletal muscle actin (rabbit) (UniProt P68135); assay: co-sedimentation
[2] = target: microtubules of rat brain tubulin (rat) (UniProt P68370); assay: co-sedimentation

Substance	percent of total 255-kD protein sedimented [1]	percent of total axolinin sedimented [2]
255-kD protein of squid giant axon (natural protein)	62%	–
axolinin (260-kD protein) of squid giant axon (natural protein)	–	70%
